Source: PMC8452012, “Branched chain fatty acid synthesis drives tissue-specific innate immune response and infection dynamics of Staphylococcus aureus” (PLoS Pathogens, 2021)

Key:
Test in all cases: purified protein
Settings in all cases: pH 8.0, 25 °C, 50 mM Tris-HCl, 1 mg/mL arabic gum, 0.05% Triton X-100, 10% isopropanol
[1] = test system: CCC(C)CCCCCCCCCCC(=O)Oc1ccc([N+](=O)[O-])cc1
[2] = test system: CCCCCCCC/C=C\CCCCCCCC(=O)Oc1ccc([N+](=O)[O-])cc1
[3] = test system: CCCC(=O)Oc1ccc([N+](=O)[O-])cc1

Row | Substance | Km [1] | Km [2] | Km [3]
1 | Geh (Sal2); Geh-6xHis (Staphylococcus aureus subsp. aureus NCTC 8325) | 74.1 µM | 160.5 µM | 
2 | Sal1; Sal1-6xHis (Staphylococcus aureus subsp. aureus USA300) |  |  | 332.4 µM
